Reference: the RNAGym collection of RNA variant scans (doi:10.1093/molbev/msab373)

B1: Azoarcus group I ribozyme (parent)
chain: GUGCCUUGCGCCGGGAAACCACGCAAGGGAUGGUGUCAAAUUCGGCGAAACCUAAGCGCCCGCCCGGGCGUAUGGCAACGCCGAGCCAAGCUUCGGCGCCUGCGCCGAUGAAGGUGUAGAGACUAGACGGCACCCACCUAAGGCAAACGCUAUGGUGAAGGCAUAGUCCAGGGAGUGGCGAAAGUCACACAAACCGG

Variants of: B1
Test: reverse-splicing fitness (ratio to wild type); higher = more active; in vitro selection; Mg2+ level not given
How it was run: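 An in vitro group I ribozyme library with randomized positions was T7-transcribed and gel-purified. In triplicate, 10 pmol RNA in EPPS pH 7.5 was reacted with 50 pmoles of a 30-nt RNA substrate for 1 h at 37 °C across several added MgCl2 levels (1–48 mM), then stopped with EDTA. Products were reverse transcribed from a substrate-complementary primer, PCR-amplified and sequenced (HiSeq 4000). Fitness is a variant's read proportion after selection over that before, normalised to wild type.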

Variant	reverse-splicing fitness
C82A C150A C169U U176C	0.0166
C82A C150A C169U U176G	0.00672
C82A C150A U176A	0.0524
C82A C150A U176C	0.0632
C82A C150A U176G	0.021
C82A C150G	0.0487
C82A C150G C169A	0.00934
C82A C150G C169A U176A	0.0112
C82A C150G C169A U176C	0.0111
C82A C150G C169A U176G	0.00678
C82A C150G C169G	0.00738
C82A C150G C169G U176A	0.00711
C82A C150G C169G U176C	0.00553
C82A C150G C169G U176G	0.00581
C82A C150G C169U	0.00995
C82A C150G C169U U176A	0.00724
C82A C150G C169U U176C	0.0109
C82A C150G C169U U176G	0.00641
C82A C150G U176A	0.0245
C82A C150G U176C	0.0393
C82A C150G U176G	0.0062

Variant	reverse-splicing fitness
C82A C150U	0.367
C82A C150U C169A	0.0105
C82A C150U C169A U176A	0.0169
C82A C150U C169A U176C	0.0144
C82A C150U C169A U176G	0.00593
C82A C150U C169G	0.0106
C82A C150U C169G U176A	0.014
C82A C150U C169G U176C	0.0175
C82A C150U C169G U176G	0.00542
C82A C150U C169U	0.0139
C82A C150U C169U U176A	0.0141
C82A C150U C169U U176C	0.016
C82A C150U C169U U176G	0.00577
C82A C150U U176A	0.24
C82A C150U U176C	0.253
C82A C150U U176G	0.069
C82A C169A	0.00967
C82A C169A U176A	0.015
C82A C169A U176C	0.0166
C82A C169A U176G	0.00441
C82A C169G	0.00961

Variant	reverse-splicing fitness
C82A C169G U176A	0.0139
C82A C169G U176C	0.0234
C82A C169G U176G	0.00442
C82A C169U	0.0153
C82A C169U U176A	0.0166
C82A C169U U176C	0.0153
C82A C169U U176G	0.00459
C82A U176A	0.407
C82A U176C	0.484
C82A U176G	0.12
C82G	0.499
C82G A111C	0.281
C82G A111C A120C	0.0556
C82G A111C A120C A145C	0.0447
C82G A111C A120C A145C C150A	0.00907
C82G A111C A120C A145C C150A C169A	0.00796
C82G A111C A120C A145C C150A C169A U176A	0.0156
C82G A111C A120C A145C C150A C169A U176C	0.00933
C82G A111C A120C A145C C150A C169A U176G	0.00693
C82G A111C A120C A145C C150A C169G	0.00859
C82G A111C A120C A145C C150A C169G U176A	0.0271

Variant	reverse-splicing fitness
C82G A111C A120C A145C C150A C169G U176C	0.0215
C82G A111C A120C A145C C150A C169G U176G	0.00758
C82G A111C A120C A145C C150A C169U	0.0113
C82G A111C A120C A145C C150A C169U U176A	0.0176
C82G A111C A120C A145C C150A C169U U176C	0.0123
C82G A111C A120C A145C C150A C169U U176G	0.00799
C82G A111C A120C A145C C150A U176A	0.00989
C82G A111C A120C A145C C150A U176C	0.0115
C82G A111C A120C A145C C150A U176G	0.00623
C82G A111C A120C A145C C150G	0.0093
C82G A111C A120C A145C C150G C169A	0.00859
C82G A111C A120C A145C C150G C169A U176A	0.00832
C82G A111C A120C A145C C150G C169A U176C	0.00796
C82G A111C A120C A145C C150G C169A U176G	0.00733
C82G A111C A120C A145C C150G C169G	0.00653
C82G A111C A120C A145C C150G C169G U176A	0.00984
C82G A111C A120C A145C C150G C169G U176C	0.00983
C82G A111C A120C A145C C150G C169G U176G	0.00608
C82G A111C A120C A145C C150G C169U	0.00944
C82G A111C A120C A145C C150G C169U U176A	0.00824
C82G A111C A120C A145C C150G C169U U176C	0.0123
